Each block holds one binder with its values, some of them ahead of it.
B2: His6-T7-HSV tagged full-length V0c-subunit (natural protein, rat, UniProt P63081 1-155, looked up)
chain: MADIKNNPEYSSFFGVMGASSAMVFSAMGAAYGTAKSGTGIAAMSVMRPELIMKSIIPVVMAGIIAIYGLVVAVLIANSLTDGITLYRSFLQLGAGLSVGLSGLAAGFAIGIVGDAGVRGTAQQPRLFVGMILILIFAEVLGLYGLIVALILSTK
notes: V-ATPase V0 sector subunit c (V0c), full length; also called HSV-V0c; 6His-V0c; source: E. coli OverExpress C43(DE3), membranes solubilized in 2% FosCholine-12, purified (Ni-NTA)
B4: Full-length V0c-L3.4s mutant (V0c with scrambled loop 3.4) (natural protein, rat, UniProt P63081 1-155, looked up)
chain: MADIKNNPEYSSFFGVMGASSAMVFSAMGAAYGTAKSGTGIAAMSVMRPELIMKSIIPVVMAGIIAIYGLVVAVLIANSLTDGITLYRSFLQLGAGLSVGLSGLAAGFAIGIVGDAGQATVQPLGRRFVGMILILIFAEVLGLYGLIVALILSTK
notes: Cloned in pET28 (EcoR1/Sal1); source: E. coli OverExpress C43(DE3), purified (Ni-NTA)
B5: Complexin1-GST (natural protein, rat, UniProt P63041 1-134, looked up)
chain: MEFVMKQALGGATKDMGKMLGGDEEKDPDAAKKEEERQEALRQAEEERKAKYAKMEAEREVMRQGIRDKYGIKKKEEREAEAQAAMEANSEGSLTRPKKAIPPGCGDEPEEEDESILDTVIKYLPGPLQDMFKK
notes: Legends call it GST-complexin although GST stands downstream of complexin in the construct; also called GST-complexin; immobilized complexin; source: E. coli BL21, purified; not shown: GST, C-terminal, kept

Key:
Conditions in all cases: both partners purified
GST-V0d1 [1] = target: T1, GST-V0d1 (rat, UniProt Q5M7T6 1-351); assay: SPR; competition: V0c 50 nM injected over immobilized GST-V0d1 in the presence of an excess of GST or GST-complexin, or of L1.2 or L3.4 peptides; GST flow cell subtracted
T1 construct: rat V-ATPase V0 sector subunit d1 (V0d1), amplified from an adult rat brain cDNA library and inserted EcoR1/Sal1 into pGEX-5x-1; the forward primer begins at the codon after the first methionine (SFFPEL), the reverse primer ends at the stop codon; also called immobilized V0d1; source: E. coli BL21, purified (Glutathione-Sepharose)

Complexin1-GST = target: B5; assay: SPR; competition: V0c 100 nM preincubated or not with L1.2 or L3.4 peptides (10 µM) and injected on immobilized GST-complexin; 25 °C
GST-V0d1 [2] = target: T1, GST-V0d1; assay: ELISA; V0c, VAMP2, t-SNARE, complexin, trimeric SNARE complex with or without complexin immobilized; GST-V0d1 or GST 50 nM; detected with anti-GST; GST binding subtracted
[3] = target: B2; assay: ELISA; His-tagged complexin immobilized (1 µg/well); V0c 20 nM with or without VAMP2 100 nM, overnight 4 °C in 50 mM Tris-HCl pH 7.5, 150 mM NaCl, 3% BSA, 0.1% Triton X-100; detected with anti-HSV
GST-V0d1 [4] = target: T1, GST-V0d1; assay: SPR; GST-V0d1 and GST amine-coupled on consecutive flow cells; V0c (50 nM, with or without 2 µM soluble GST-V0d1), V0c L1.2s or V0c L3.4s injected; 25 °C; GST signal subtracted
[5] = target: B2; assay: SPR; Complexin1-GST and GST amine-coupled on the chip; V0c, V0c L1.2s or V0c L3.4s 50 nM injected for 2 min; 25 °C, HBS with or without 0.2% CHAPS; GST signal subtracted
[6] = target: B4; assay: as above

T1 sequence (Q5M7T6 entry or part of it): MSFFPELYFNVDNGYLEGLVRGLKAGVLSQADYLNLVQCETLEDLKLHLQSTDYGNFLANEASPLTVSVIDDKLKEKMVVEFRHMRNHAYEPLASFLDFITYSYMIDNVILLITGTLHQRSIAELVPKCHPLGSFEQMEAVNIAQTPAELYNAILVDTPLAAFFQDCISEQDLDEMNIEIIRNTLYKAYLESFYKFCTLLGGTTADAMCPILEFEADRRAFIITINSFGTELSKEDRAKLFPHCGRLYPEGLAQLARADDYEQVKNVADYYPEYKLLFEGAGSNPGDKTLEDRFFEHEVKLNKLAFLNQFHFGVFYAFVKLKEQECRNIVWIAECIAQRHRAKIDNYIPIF

- binding result (GST-V0d1 [1]): binds
- binding result (Complexin1-GST): binds
B1: V0c L1.2 peptide (aa 35-KSGTGIAAMSVMRPELIMKS-54) (peptide)
peptide: KSGTGIAAMSVMRPELIMKS
notes: V0c cytosolic loop 1.2; printed as aa 35-54; also called loop 1.2 peptide; free L1.2 peptide; source: synthetic peptide (Genecust)

Binder: B2
- binding result (GST-V0d1 [2]): binds

- binding result [3]: binds
B3: Complexin1-His (natural protein, rat, UniProt P63041 1-134, looked up)
chain: MEFVMKQALGGATKDMGKMLGGDEEKDPDAAKKEEERQEALRQAEEERKAKYAKMEAEREVMRQGIRDKYGIKKKEEREAEAQAAMEANSEGSLTRPKKAIPPGCGDEPEEEDESILDTVIKYLPGPLQDMFKK
notes: also called His-tagged complexin; source: E. coli BL21, purified

Binder: B4
- binding result (GST-V0d1 [4]): binds

Binder: B5
- binding result [5]: binds
- binding result [6]: binds

Reference: PMC10001230, “A Role for the V0 Sector of the V-ATPase in Neuroexocytosis: Exogenous V0d Blocks Complexin and SNARE Interactions with V0c” (Cells, 2023)
